Results taken from paper PMC8669218 (Acta Pharmacologica Sinica, 2021).
Substitutions are numbered along the chain they refer to.

B1: extracellular domain of human DPP4 (residues 39-766), K122D (domain or fragment)
chain: SRKTYTLTDYLKNTYRLKLYSLRWISDHEYLYKQENNILVFNAEYGNSSVFLENSTFDEFGHSINDYSISPDGQFILLEYNYVDQWRHSYTASYDIYDLNKRQLITEERIPNNTQWVTWSPVGHKLAYVWNNDIYVKIEPNLPSYRITWTGKEDIIYNGITDWVYEEEVFSAYSALWWSPNGTFLAYAQFNDTEVPLIEYSFYSDESLQYPKTVRVPYPKAGAVNPTVKFFVVNTDSLSSVTNATSIQITAPASMLIGDHYLCDVTWATQERISLQWLRRIQNYSVMDICDYDESSGRWNCLVARQHIEMSTTGWVGRFRPSEPHFTLDGNSFYKIISNEEGYRHICYFQIDKKDCTFITKGTWEVIGIEALTSDYLYYISNEYKGMPGGRNLYKIQLSDYTKVTCLSCELNPERCQYYSVSFSKEAKYYQLRCSGPGLPLYTLHSSVNDKGLRVLEDNSALDKMLQNVQMPSKKLDFIILNETKFWYQMILPPHFDKSKKYPLLLDVYAGPCSQKADTVFRLNWATYLASTENIIVASFDGRGSGYQGDKIMHAINRRLGTFEVEDQIEAARQFSKMGFVDNKRIAIWGWSYGGYVTSMVLGSGSGVFKCGIAVAPVSRWEYYDSVYTERYMGLPTPEDNLDHYRNSTVMSRAENFKQVEYLLIHGTADDNVHFQQSAQISKALVDVGVDFQAMWYTDEDHGIASSTAHQHIYTHMSHFIKQCFSLP
modifications: glycosylated (sites not given)
B2: extracellular domain of human DPP4 (residues 39-766), P257A (domain or fragment)
chain: B1 chain with D84K, P219A
modifications: glycosylated (sites not given)
B3: extracellular domain of human DPP4 (residues 39-766), D243A (domain or fragment)
chain: B1 chain with D84K, D205A
modifications: glycosylated (sites not given)

Target: the molecule itself
Assay: nonreducing SDS-PAGE

Protein	binding result
B1	binds
B2	binds
B3	binds
